Assay [1] has as its target human corticotropin-releasing factor 2a (CRF2a receptor) (human), Q13324. Kind of assay: cell-based or functional assay.
A further assay deals with T1, CRF1R receptor (UniProt P34998 24-415, limits assumed).
T1 sequence (looked up): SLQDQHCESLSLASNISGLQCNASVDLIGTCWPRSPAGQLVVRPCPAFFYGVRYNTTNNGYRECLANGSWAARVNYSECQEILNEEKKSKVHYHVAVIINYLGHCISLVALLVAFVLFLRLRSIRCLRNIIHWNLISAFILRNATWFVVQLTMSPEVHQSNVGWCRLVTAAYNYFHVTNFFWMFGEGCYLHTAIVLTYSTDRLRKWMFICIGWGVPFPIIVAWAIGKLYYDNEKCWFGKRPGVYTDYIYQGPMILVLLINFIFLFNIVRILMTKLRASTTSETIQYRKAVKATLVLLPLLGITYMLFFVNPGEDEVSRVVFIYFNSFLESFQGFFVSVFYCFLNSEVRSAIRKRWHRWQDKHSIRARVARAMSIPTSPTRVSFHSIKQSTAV
Description: cell-based or functional assay.

*1 amine or outer side, *2 acyl side, *3 side chain or, on linkers, in order; H or OH if unused. Where no end group is shown, it is not given here. Side-chain parts run from the residue outwards. [ ]: non-standard residue; d: D form. The star is where a group is joined. C18 diacid = O=C(O)CCCCCCCCCCCCCCCCC(=O)*; C16 diacid = O=C(O)CCCCCCCCCCCCCCC(=O)*; γGlu = O=C(O)[C@H](CCC(=O)[*:2])N[*:1]; αMeL = CC(C)C[C@](C)(N)C(=O)O; Pentanoyl = CCCCC(=O)*; AEEA = NCCOCCOCC(=O)O; Aib = CC(C)(N)C(=O)O; Butyryl = CCCC(=O)*

human corticotropin-releasing factor 2a (CRF2a receptor) (human), Q13324, sequence (Q13324 20-411): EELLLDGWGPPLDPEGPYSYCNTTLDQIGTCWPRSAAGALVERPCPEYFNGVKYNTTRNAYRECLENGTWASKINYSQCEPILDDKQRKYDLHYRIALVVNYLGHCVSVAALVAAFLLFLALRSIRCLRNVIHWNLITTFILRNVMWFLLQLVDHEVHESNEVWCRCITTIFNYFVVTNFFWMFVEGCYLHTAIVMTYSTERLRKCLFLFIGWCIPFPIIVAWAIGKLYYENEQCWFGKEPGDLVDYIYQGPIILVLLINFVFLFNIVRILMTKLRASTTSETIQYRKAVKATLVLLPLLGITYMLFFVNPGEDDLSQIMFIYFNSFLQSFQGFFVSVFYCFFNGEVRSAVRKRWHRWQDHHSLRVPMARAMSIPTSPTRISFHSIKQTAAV

B1: SEQ ID NO 97 (peptide)
peptide: Ac-IVLSLDVPIKLK([AEEA-AEEA-γGlu-C18 diacid])KILLEQEKQKKQREQAETN[Aib]QILAQV-NH2
SMILES: CC[C@H](C)[C@H](NC(C)=O)C(=O)N[C@H](C(=O)N[C@@H](CC(C)C)C(=O)N[C@@H](CO)C(=O)N[C@@H](CC(C)C)C(=O)N[C@@H](CC(=O)O)C(=O)N[C@H](C(=O)N1CCC[C@H]1C(=O)N[C@H](C(=O)N[C@@H](CCCCN)C(=O)N[C@@H](CC(C)C)C(=O)N[C@@H](CCCCNC(=O)COCCOCCNC(=O)COCCOCCNC(=O)CC[C@H](NC(=O)CCCCCCCCCCCCCCCCC(=O)O)C(=O)O)C(=O)N[C@@H](CCCCN)C(=O)N[C@H](C(=O)N[C@@H](CC(C)C)C(=O)N[C@@H](CC(C)C)C(=O)N[C@@H](CCC(=O)O)C(=O)N[C@@H](CCC(N)=O)C(=O)N[C@@H](CCC(=O)O)C(=O)N[C@@H](CCCCN)C(=O)N[C@@H](CCC(N)=O)C(=O)N[C@@H](CCCCN)C(=O)N[C@@H](CCCCN)C(=O)N[C@@H](CCC(N)=O)C(=O)N[C@@H](CCCNC(=N)N)C(=O)N[C@@H](CCC(=O)O)C(=O)N[C@@H](CCC(N)=O)C(=O)N[C@@H](C)C(=O)N[C@@H](CCC(=O)O)C(=O)N[C@H](C(=O)N[C@@H](CC(N)=O)C(=O)NC(C)(C)C(=O)N[C@@H](CCC(N)=O)C(=O)N[C@H](C(=O)N[C@@H](CC(C)C)C(=O)N[C@@H](C)C(=O)N[C@@H](CCC(N)=O)C(=O)N[C@H](C(N)=O)C(C)C)[C@@H](C)CC)[C@@H](C)O)[C@@H](C)CC)[C@@H](C)CC)C(C)C)C(C)C
B1 returned an EC50 [nM] (cAMP) in assay [1] of 3.17 nM. In the assay with CRF1R receptor, the “Emax (% I)” value is 0%.

B2: SEQ ID NO 26 (peptide)
peptide: Ac-IVLSLDVPIKLK([AEEA-AEEA-γGlu-γGlu-C18 diacid])Q[Aib]LLKQERQKKQREQAEKN[Aib]QILEQV-NH2
SMILES: CC[C@H](C)[C@H](NC(C)=O)C(=O)N[C@H](C(=O)N[C@@H](CC(C)C)C(=O)N[C@@H](CO)C(=O)N[C@@H](CC(C)C)C(=O)N[C@@H](CC(=O)O)C(=O)N[C@H](C(=O)N1CCC[C@H]1C(=O)N[C@H](C(=O)N[C@@H](CCCCN)C(=O)N[C@@H](CC(C)C)C(=O)N[C@@H](CCCCNC(=O)COCCOCCNC(=O)COCCOCCNC(=O)CC[C@H](NC(=O)CC[C@H](NC(=O)CCCCCCCCCCCCCCCCC(=O)O)C(=O)O)C(=O)O)C(=O)N[C@@H](CCC(N)=O)C(=O)NC(C)(C)C(=O)N[C@@H](CC(C)C)C(=O)N[C@@H](CC(C)C)C(=O)N[C@@H](CCCCN)C(=O)N[C@@H](CCC(N)=O)C(=O)N[C@@H](CCC(=O)O)C(=O)N[C@@H](CCCNC(=N)N)C(=O)N[C@@H](CCC(N)=O)C(=O)N[C@@H](CCCCN)C(=O)N[C@@H](CCCCN)C(=O)N[C@@H](CCC(N)=O)C(=O)N[C@@H](CCCNC(=N)N)C(=O)N[C@@H](CCC(=O)O)C(=O)N[C@@H](CCC(N)=O)C(=O)N[C@@H](C)C(=O)N[C@@H](CCC(=O)O)C(=O)N[C@@H](CCCCN)C(=O)N[C@@H](CC(N)=O)C(=O)NC(C)(C)C(=O)N[C@@H](CCC(N)=O)C(=O)N[C@H](C(=O)N[C@@H](CC(C)C)C(=O)N[C@@H](CCC(=O)O)C(=O)N[C@@H](CCC(N)=O)C(=O)N[C@H](C(N)=O)C(C)C)[C@@H](C)CC)[C@@H](C)CC)C(C)C)C(C)C
B2 had an EC50 [nM] (cAMP) in assay [1] of 18.6 nM. Moreover, in the assay with CRF1R receptor, the “EC50” value is over 250 nM and the “Emax (% I)” value worked out at 1%.

B3: SEQ ID NO 95 (peptide)
peptide: Butyryl-VLSLDVPIKLK([AEEA-AEEA-γGlu-C18 diacid])KILLEQEKQKKQREQAETNKQILAQV-NH2
SMILES: CCCC(=O)N[C@H](C(=O)N[C@@H](CC(C)C)C(=O)N[C@@H](CO)C(=O)N[C@@H](CC(C)C)C(=O)N[C@@H](CC(=O)O)C(=O)N[C@H](C(=O)N1CCC[C@H]1C(=O)N[C@H](C(=O)N[C@@H](CCCCN)C(=O)N[C@@H](CC(C)C)C(=O)N[C@@H](CCCCNC(=O)COCCOCCNC(=O)COCCOCCNC(=O)CC[C@H](NC(=O)CCCCCCCCCCCCCCCCC(=O)O)C(=O)O)C(=O)N[C@@H](CCCCN)C(=O)N[C@H](C(=O)N[C@@H](CC(C)C)C(=O)N[C@@H](CC(C)C)C(=O)N[C@@H](CCC(=O)O)C(=O)N[C@@H](CCC(N)=O)C(=O)N[C@@H](CCC(=O)O)C(=O)N[C@@H](CCCCN)C(=O)N[C@@H](CCC(N)=O)C(=O)N[C@@H](CCCCN)C(=O)N[C@@H](CCCCN)C(=O)N[C@@H](CCC(N)=O)C(=O)N[C@@H](CCCNC(=N)N)C(=O)N[C@@H](CCC(=O)O)C(=O)N[C@@H](CCC(N)=O)C(=O)N[C@@H](C)C(=O)N[C@@H](CCC(=O)O)C(=O)N[C@H](C(=O)N[C@@H](CC(N)=O)C(=O)N[C@@H](CCCCN)C(=O)N[C@@H](CCC(N)=O)C(=O)N[C@H](C(=O)N[C@@H](CC(C)C)C(=O)N[C@@H](C)C(=O)N[C@@H](CCC(N)=O)C(=O)N[C@H](C(N)=O)C(C)C)[C@@H](C)CC)[C@@H](C)O)[C@@H](C)CC)[C@@H](C)CC)C(C)C)C(C)C
Regarding B3, the EC50 [nM] (cAMP) in assay [1] amounted to 0.76 nM. Besides, in the assay with CRF1R receptor, the “Emax (% I)” value is 5%.

B4: SEQ ID NO 19 (peptide)
peptide: Ac-IVLSLDVPIK[αMeL]K([γGlu-C16 diacid])QILLKQERQKKQREQAEKN[Aib]QILEQV-NH2
SMILES: CC[C@H](C)[C@H](NC(C)=O)C(=O)N[C@H](C(=O)N[C@@H](CC(C)C)C(=O)N[C@@H](CO)C(=O)N[C@@H](CC(C)C)C(=O)N[C@@H](CC(=O)O)C(=O)N[C@H](C(=O)N1CCC[C@H]1C(=O)N[C@H](C(=O)N[C@@H](CCCCN)C(=O)N[C@@](C)(CC(C)C)C(=O)N[C@@H](CCCCNC(=O)CC[C@H](NC(=O)CCCCCCCCCCCCCCC(=O)O)C(=O)O)C(=O)N[C@@H](CCC(N)=O)C(=O)N[C@H](C(=O)N[C@@H](CC(C)C)C(=O)N[C@@H](CC(C)C)C(=O)N[C@@H](CCCCN)C(=O)N[C@@H](CCC(N)=O)C(=O)N[C@@H](CCC(=O)O)C(=O)N[C@@H](CCCNC(=N)N)C(=O)N[C@@H](CCC(N)=O)C(=O)N[C@@H](CCCCN)C(=O)N[C@@H](CCCCN)C(=O)N[C@@H](CCC(N)=O)C(=O)N[C@@H](CCCNC(=N)N)C(=O)N[C@@H](CCC(=O)O)C(=O)N[C@@H](CCC(N)=O)C(=O)N[C@@H](C)C(=O)N[C@@H](CCC(=O)O)C(=O)N[C@@H](CCCCN)C(=O)N[C@@H](CC(N)=O)C(=O)NC(C)(C)C(=O)N[C@@H](CCC(N)=O)C(=O)N[C@H](C(=O)N[C@@H](CC(C)C)C(=O)N[C@@H](CCC(=O)O)C(=O)N[C@@H](CCC(N)=O)C(=O)N[C@H](C(N)=O)C(C)C)[C@@H](C)CC)[C@@H](C)CC)[C@@H](C)CC)C(C)C)C(C)C
Regarding B4, the EC50 [nM] (cAMP) in assay [1] was 0.28 nM. The “Emax (% I)” value with CRF1R receptor is 6%.

B5: SEQ ID NO 96 (peptide)
peptide: Pentanoyl-VLSLDVPIKLK([AEEA-AEEA-γGlu-C18 diacid])KILLEQEKQKKQREQAETNKQILAQV-NH2
SMILES: CCCCC(=O)N[C@H](C(=O)N[C@@H](CC(C)C)C(=O)N[C@@H](CO)C(=O)N[C@@H](CC(C)C)C(=O)N[C@@H](CC(=O)O)C(=O)N[C@H](C(=O)N1CCC[C@H]1C(=O)N[C@H](C(=O)N[C@@H](CCCCN)C(=O)N[C@@H](CC(C)C)C(=O)N[C@@H](CCCCNC(=O)COCCOCCNC(=O)COCCOCCNC(=O)CC[C@H](NC(=O)CCCCCCCCCCCCCCCCC(=O)O)C(=O)O)C(=O)N[C@@H](CCCCN)C(=O)N[C@H](C(=O)N[C@@H](CC(C)C)C(=O)N[C@@H](CC(C)C)C(=O)N[C@@H](CCC(=O)O)C(=O)N[C@@H](CCC(N)=O)C(=O)N[C@@H](CCC(=O)O)C(=O)N[C@@H](CCCCN)C(=O)N[C@@H](CCC(N)=O)C(=O)N[C@@H](CCCCN)C(=O)N[C@@H](CCCCN)C(=O)N[C@@H](CCC(N)=O)C(=O)N[C@@H](CCCNC(=N)N)C(=O)N[C@@H](CCC(=O)O)C(=O)N[C@@H](CCC(N)=O)C(=O)N[C@@H](C)C(=O)N[C@@H](CCC(=O)O)C(=O)N[C@H](C(=O)N[C@@H](CC(N)=O)C(=O)N[C@@H](CCCCN)C(=O)N[C@@H](CCC(N)=O)C(=O)N[C@H](C(=O)N[C@@H](CC(C)C)C(=O)N[C@@H](C)C(=O)N[C@@H](CCC(N)=O)C(=O)N[C@H](C(N)=O)C(C)C)[C@@H](C)CC)[C@@H](C)O)[C@@H](C)CC)[C@@H](C)CC)C(C)C)C(C)C
B5 had an EC50 [nM] (cAMP) in assay [1] of 0.49 nM. In addition, the “Emax (% I)” value with CRF1R receptor was 4%.

B6: SEQ ID NO 25 (peptide)
peptide: IVLSLDVPIKLK([AEEA-AEEA-γGlu-γGlu-C18 diacid])Q[Aib]LLKQERQKKQREQAEKN[Aib]QILEQV-NH2
modifications: N-terminus assumed
SMILES: CC[C@H](C)[C@H](N)C(=O)N[C@H](C(=O)N[C@@H](CC(C)C)C(=O)N[C@@H](CO)C(=O)N[C@@H](CC(C)C)C(=O)N[C@@H](CC(=O)O)C(=O)N[C@H](C(=O)N1CCC[C@H]1C(=O)N[C@H](C(=O)N[C@@H](CCCCN)C(=O)N[C@@H](CC(C)C)C(=O)N[C@@H](CCCCNC(=O)COCCOCCNC(=O)COCCOCCNC(=O)CC[C@H](NC(=O)CC[C@H](NC(=O)CCCCCCCCCCCCCCCCC(=O)O)C(=O)O)C(=O)O)C(=O)N[C@@H](CCC(N)=O)C(=O)NC(C)(C)C(=O)N[C@@H](CC(C)C)C(=O)N[C@@H](CC(C)C)C(=O)N[C@@H](CCCCN)C(=O)N[C@@H](CCC(N)=O)C(=O)N[C@@H](CCC(=O)O)C(=O)N[C@@H](CCCNC(=N)N)C(=O)N[C@@H](CCC(N)=O)C(=O)N[C@@H](CCCCN)C(=O)N[C@@H](CCCCN)C(=O)N[C@@H](CCC(N)=O)C(=O)N[C@@H](CCCNC(=N)N)C(=O)N[C@@H](CCC(=O)O)C(=O)N[C@@H](CCC(N)=O)C(=O)N[C@@H](C)C(=O)N[C@@H](CCC(=O)O)C(=O)N[C@@H](CCCCN)C(=O)N[C@@H](CC(N)=O)C(=O)NC(C)(C)C(=O)N[C@@H](CCC(N)=O)C(=O)N[C@H](C(=O)N[C@@H](CC(C)C)C(=O)N[C@@H](CCC(=O)O)C(=O)N[C@@H](CCC(N)=O)C(=O)N[C@H](C(N)=O)C(C)C)[C@@H](C)CC)[C@@H](C)CC)C(C)C)C(C)C
Molecule B6 gave an EC50 [nM] (cAMP) in assay [1] of 5.02 nM. Further, in the assay with CRF1R receptor, the “EC50” value was over 250 nM and the “Emax (% I)” value is 6%.

For orientation: EC50 means the concentration giving half of the maximal effect. The low end stands for greater potency, the high end for weaker potency.

Values taken from patent US20260001928A1 (CORTERIA PHARMACEUTICALS, priority 2022, published 2026).
